According to the supplement of paper PMC9732359:
± gives the uncertainty stated by the source.

Experiment: protein stability index of a GFP-peptide fusion (yeast GPS) (PSI 1-4); higher = more stable; sorted into four equal gates, so the index is relative within each strain
Procedure, shortened: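 Tiled yeast protein peptides of 17 residues were each joined downstream of GFP, on plasmids that also express Cherry. The pooled library was maintained in yeast, and mid-log cultures in leucine-free medium were sorted into four equal gates on the GFP/Cherry ratio. Plasmids from every gate were amplified by PCR and sequenced on Illumina, with barcodes linking reads to strains. The protein stability index of a peptide is its gate-number-weighted read frequency summed over the gates.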

Row | Sequence | protein stability index (doa10∆) | protein stability index (pdr5∆) | protein stability index (san1∆) | protein stability index (ubr1∆)
1 | PLSVATELMNRSPLVTP [SRP72] | 2.14 ± 0.068 | 2.48 ± 0.069 | 2.4 ± 0.06 | 2.03 ± 0.06
2 | PDTAIDSQMDEASGTPD [GRR1] | 2.97 ± 0.062 | 3.06 ± 0.071 | 2.89 ± 0.064 | 3 ± 0.055
3 | VPNILSLDMNSMNKELI [NUT1] | 2.14 ± 0.075 | 1.96 ± 0.084 | 1.46 ± 0.27 | 1.91 ± 0.075
4 | PTDQNNQSNLNGGNNTQ [SNF2] | 2.46 ± 0.083 | 3.03 ± 0.072 | 3.13 ± 0.079 | 3.01 ± 0.063
5 | TQQQPGAPGANARMPGM [SRP54] | 3.1 ± 0.12 | 2.89 ± 0.096 | 2.89 ± 0.25 | 2.7 ± 0.084
6 | EIKNWISDIPYVISLSY [YMR129W/POM152] |  |  |  | 1.27 ± 0.27
7 | KIPSASIWGNGYSGYGN [SNF5] | 3.25 ± 0.1 | 3.27 ± 0.11 | 3.42 ± 0.095 | 3.3 ± 0.05
8 | NKKRPSSKKVFSSNLSY [YOR098C/NUP1] | 2.48 ± 0.073 | 2.4 ± 0.063 | 2.08 ± 0.1 | 2.56 ± 0.05
9 | GKLLRNYTQNIDNLESY [SIR2] | 3.48 ± 0.21 | 3.17 ± 0.27 | 3.09 ± 0.13 | 
10 | IQLPASLAATYSMISLQ [ARP9] | 1.73 ± 0.088 | 2.01 ± 0.074 | 2.29 ± 0.1 | 2.19 ± 0.053
11 | TSQKMTSTVNRLNTVTR [MCD1] | 3.16 ± 0.094 | 2.94 ± 0.18 | 3.57 ± 0.18 | 3.09 ± 0.098
12 | YSSRVDSVTTETGKLLS [BRN1] | 2.38 ± 0.13 | 2.46 ± 0.14 | 2.34 ± 0.21 | 2.11 ± 0.18
13 | IFKDKEKLVSDLRLIKV [SMC1] | 3.25 ± 0.26 | 3.23 ± 0.089 | 3.31 ± 0.21 | 3.44 ± 0.15
14 | GDIKPEFSPRLHNIWSN [YML103C/NUP188] | 3.22 ± 0.14 | 2.98 ± 0.091 | 3.32 ± 0.11 | 3.51 ± 0.11
15 | IHKQIVIEMKRCFENLQ [UBP6] | 2.75 ± 0.097 | 2.13 ± 0.093 | 3.1 ± 0.064 | 2.87 ± 0.1
16 | SLNLGIGIVEIAHENEQ [SRB8] | 1.43 ± 0.11 | 2.07 ± 0.084 | 2.52 ± 0.11 | 2.08 ± 0.087
17 | ESSELNKDSIEECGRTI [CSN12] | 3.46 ± 0.18 | 2.92 ± 0.16 | 3.42 ± 0.089 | 3.28 ± 0.15
18 | EPFTILGAVAGLIPYPH [RET1] | 2.17 ± 0.063 | 2.13 ± 0.051 | 2.13 ± 0.078 | 1.83 ± 0.043
19 | VGRLASVVAKQLLNGQK [RPL16A] |  | 1.89 ± 0.3 | 2.99 ± 0.13 | 1.67 ± 0.2
20 | LDQTKDTRITHLLRQTN [SNF2] | 1.34 ± 0.036 | 1.41 ± 0.034 | 1.54 ± 0.061 | 1.32 ± 0.029
21 | WTELCQREFKEIMEERN [NNF1] | 2.98 ± 0.21 | 3.41 ± 0.16 | 3.13 ± 0.072 | 3.2 ± 0.074
22 | QNNSKHTEDTVNESRNS [SRB5] |  | 2.73 ± 0.1 | 2.95 ± 0.09 | 2.98 ± 0.11
23 | RPTGGANMATVPSTTNV [MED6] | 2.66 ± 0.062 | 2.93 ± 0.06 | 2.42 ± 0.17 | 2.91 ± 0.04
24 | IELDQVLNMLYWVPDWD [RPO21] | 2.84 ± 0.095 | 2.32 ± 0.068 | 2.17 ± 0.11 | 2.51 ± 0.057
25 | SLLTLVGSVTYQVDEDV [YJL039C/NUP192] | 1.8 ± 0.1 | 1.67 ± 0.13 | 2.66 ± 0.098 | 1.23 ± 0.14
26 | NMVLENVKELWTEKKGK [SMD2] | 2.91 ± 0.11 | 2.67 ± 0.098 | 2.47 ± 0.14 | 3.3 ± 0.065
27 | AFSPLTTTRIQSQQAQP [MED2] | 2.7 ± 0.055 | 2.83 ± 0.044 | 2.52 ± 0.061 | 2.8 ± 0.036
